For test [1], the target named is DEspR on activated neutrophils (species of the neutrophils not stated for FIG. 6 / FIG. 17C). The test is described as follows: cell-based or functional assay.
Test [2] has as its target T1, human DEspR (dual endothelin/VEGF signal peptide receptor) (human) (UniProt B0L3A2).
T1 sequence: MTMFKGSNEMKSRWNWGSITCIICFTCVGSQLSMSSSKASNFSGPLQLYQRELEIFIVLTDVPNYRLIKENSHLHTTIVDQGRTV
The test is described as follows: binding to DEspR on intact human cells, triplicate.

Usually EC50 stands for the concentration giving half of the maximal effect.

“And” between values parts separate entries of the source, which are not always exact repeats. Equal entries are not always repeated.

B1: 6g8 mumab, murine anti-DEspR monoclonal antibody (pan-species reactive anti-Human/Rat/Monkey DEspR mAb), precursor of hu-6g8 (antibody, from a related filing, V domains shown)
VH: EVQLQESGGGLVQPGGSLKLSCAASGFDFSRYWMSWVRQAPGKGLEWIGEINPDSSTINYTPSLKDKFIISRDTAKKTLYLQMSKVRSEDTALYYCARHGRGMDYWSQGTSVTVSS
VL: DIVLTQTNQIMSASVGDRVSVTCKASQNVDSNVAWYQQKPGHSPKALIYSASYRYSRVPDRITGSGSGTDFTLTITNVQSKDLADYFCQQYHSYPLLAFGAGTKLELKR
Regarding B1, in test [1], the inhibition of neutrophil (PMN) survival (IC50) was above 198 nM; the inhibition of survival (IC50), live cells counted by Trypan blue dye exclusion is > 200 nM and > 30 µg/mL. Besides, the 50% effective concentration (EC50) in test [2] was determined as 178 nM.
